In publication PMC5770437, “The crystal structure of D-xylonate dehydratase reveals functional features of enzymes from the Ilv/ED dehydratase family” (Scientific Reports, 2018):

What was measured:
[1] = molecular target: T1, D-xylonate dehydratase from Caulobacter crescentus (CcXyDHT) (Caulobacter vibrioides, UniProt Q9A9Z2); assay: X-ray crystal structure, […] Å; assay type: binding; conditions: holo form with Mg2+; Fe1 bound by Cys60 and Cys128, Fe2 by Cys200; active site
T1 construct: gene xylD; N-terminal Strep-tag II kept; expressed in E. coli; homotetramer; residues 1-591 (Asn3-His591 modelled); Lys130 carbamylated

[2] = molecular target: D-xylonate dehydratase from Caulobacter crescentus (Caulobacter crescentus); assay: crystal structure; holo-CcXyDHT at 2.7 Å, molecular replacement with 5J84, space group C2, a tetramer in the asymmetric unit; packing analysed with the PISA server
[3] = molecular target: the molecule itself; assay: crystal structure; re-refinement with PHENIX of the deposited apo So6PGDHT model (PDB 2GP4, 2.5 Å)

T1 sequence (Q9A9Z2 6-595): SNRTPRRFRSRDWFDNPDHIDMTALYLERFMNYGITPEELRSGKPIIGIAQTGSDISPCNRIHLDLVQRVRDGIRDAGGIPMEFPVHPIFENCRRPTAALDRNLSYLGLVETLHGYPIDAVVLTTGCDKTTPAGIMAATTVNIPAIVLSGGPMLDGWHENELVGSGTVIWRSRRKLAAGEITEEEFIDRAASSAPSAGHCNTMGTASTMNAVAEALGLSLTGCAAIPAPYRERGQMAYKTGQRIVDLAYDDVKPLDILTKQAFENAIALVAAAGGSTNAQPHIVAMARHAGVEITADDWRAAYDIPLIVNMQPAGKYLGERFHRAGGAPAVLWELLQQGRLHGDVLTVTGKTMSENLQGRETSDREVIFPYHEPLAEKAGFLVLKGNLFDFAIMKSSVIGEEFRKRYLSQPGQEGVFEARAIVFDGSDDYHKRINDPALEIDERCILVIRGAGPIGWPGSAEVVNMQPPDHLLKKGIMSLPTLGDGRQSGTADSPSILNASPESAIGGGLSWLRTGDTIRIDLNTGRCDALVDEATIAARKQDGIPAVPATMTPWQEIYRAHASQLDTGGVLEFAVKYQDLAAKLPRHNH

[S]1[Fe][S][Fe]1 [[2Fe-2S] cluster]
X-ray crystal structure, 2.7 Å [1]: The crystal structure of CcXyDHT suggests that the enzyme has a [2Fe-2S] cluster

D-xylonate dehydratase from Caulobacter crescentus (enzyme)
stoichiometry N [2]: 4

B1: 6-phosphogluconate dehydratase from Shewanella oneidensis (enzyme)
chain: MHSVVQSVTDRIIARSKASREAYLAALNDARNHGVHRSSLSCGNLAHGFAACNPDDKNALRQLTKANIGIITAFNDMLSAHQPYETYPDLLKKACQEVGSVAQVAGGVPAMCDGVTQGQPGMELSLLSREVIAMATAVGLSHNMFDGALLLGICDKIVPGLLIGALSFGHLPMLFVPAGPMKSGIPNKEKARIRQQFAQGKVDRAQLLEAEAQSYHSAGTCTFYGTANSNQLMLEVMGLQLPGSSFVNPDDPLREALNKMAAKQVCRLTELGTQYSPIGEVVNEKSIVNGIVALLATGGSTNLTMHIVAAARAAGIIVNWDDFSELSDAVPLLARVYPNGHADINHFHAAGGMAFLIKELLDAGLLHEDVNTVAGYGLRRYTQEPKLLDGELRWVDGPTVSLDTEVLTSVATPFQNNGGLKLLKGNLGRAVIKVSAVQPQHRVVEAPAVVIDDQNKLDALFKSGALDRDCVVVVKGQGPKANGMPELHKLTPLLGSLQDKGFKVALMTDGRMSGASGKVPAAIHLTPEAIDGGLIAKVQDGDLIRVDALTGELSLLVSDTELATRTATEIDLRHSRYGMGRELFGVLRSNLSSPETGARSTSAIDELY
notes: 6-phosphogluconate dehydratase, Shewanella oneidensis, GenBank WP_011072452; apo form as in PDB 2GP4 (no [Fe-S] cluster, no Mg2+); The crystal data were deposited by others (PDB 2GP4, unpublished); also called So6PGDHT; SoPGDHT
stoichiometry N [3]: 2
